Experimental data published in patent publication US20100248359A1 (Chugai, published 2010).

Columns and labels:
full-length human GPC3 [1] = molecular target: T1, full-length human GPC3 (human, UniProt P51654 25-554); assay: flow cytometry, antibody at 5 µg/mL, HepG2 cells
T1 construct: On CHO (DXB11) or SK-HEP-1 (SK-03) transfectants; also used here for the GPC3 on the hepatoma lines HepG2 and HuH-7; also called human glypican 3
Experimental: (§1) Cells were dissociated with 1 mM EDTA pH 8.0 (GIBCO)/PBS and suspended in FACS buffer (1% FBS/PBS) at 1×10⁶ cells/mL. The suspension was dispensed to a Multiscreen-HV Filter Plate (Millipore) at 100 μL/well and the supernatant was removed by centrifugation. An anti-GPC3 antibody diluted to an appropriate concentration was added and reacted on ice for 30 minutes. The cells were washed once with FACS buffer and an FITC-labeled anti-mouse IgG antibody was added and reacted on ice for 30 minutes. After the reaction, the cells were centrifuged at 500 rpm for 1 minute, and the supernatant was removed. The cells were suspended in 400 μL of FACS buffer and subjected to flow cytometry. EPICS ELITE ESP (Beckman Coulter) was used as a flow cytometer. A gate was set on the living cell population with the histogram of forward scatter and side scatter.

[2] = molecular target: T2, soluble form of GPC3 core protein (human, UniProt P51654 25-563); assay: competitive ELISA on coated soluble GPC3 core protein; labelled competitor biotin-M18D4;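 note: Biotin-labelled antibody added as 10 µL at 10 µg/mL for 1 h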
T2 construct: not shown: His tag added to the C-terminus

[3] = molecular target: T2, soluble form of GPC3 core protein; assay: ELISA on plate coated with soluble GPC3 core protein
Experimental: In order to conveniently evaluate the binding activity of the anti-GPC3 antibody thus obtained, concentration-dependent binding of the antibody was detected against an immunoplate containing the soluble form of GPC3 core protein immobilized thereon. A 3-fold dilution series (12 dilutions in total) of the purified antibody at a concentration of 10 μg/mL was added, and an anti-mouse IgG antibody was added as the secondary antibody. […] Since the degree of color development varies depending on the color development time, data measured precisely after 1 hour was analyzed. […] The correlation between the concentration of antibody and the degree of color development was plotted and an approximate curve was obtained by using an analyzing software, GraphPad Prism. Its EC50 value was determined as the index of the binding activity.

[4] = molecular target: T2, soluble form of GPC3 core protein; assay: competitive ELISA on coated soluble GPC3 core protein; labelled competitor biotin-M1E7;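 note: Biotin-labelled antibody added as 10 µL at 10 µg/mL for 1 h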
Experimental: (§2) The antibodies were biotinylated using a Biotin Labeling Kit (Roche). The soluble form of GPC3 core protein was diluted to 1 μg/mL with the coating buffer and added to a plate at 100 μL/well and stored at 4° C. overnight to coat the plate. On the next day, 200 μL of the substrate buffer was added for blocking. The plate was left at 4° C. overnight or longer and an anti-GPC3 antibody was added to the plate at 100 μL/well and reacted at room temperature for 1 hour. After that, without washing of the plate, 10 μL of 10 μg/mL biotin-labeled anti-GPC3 antibody was added and further reacted for 1 hour. The plate was washed with 300 μL/well of the rinse buffer for 3 times. AP-streptavidin conjugate (ZYMED) was diluted to 1000-fold with the dilution buffer and added at 100 μL/well and reacted at room temperature for 1 hour. The plate was washed with 300 μL/well of the rinse buffer for 5 times.

[5] = molecular target: T2, soluble form of GPC3 core protein; assay: competitive ELISA on coated soluble GPC3 core protein; labelled competitor biotin-M11F1;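 note: Biotin-labelled antibody added as 10 µL at 10 µg/mL for 1 h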
Experimental: as §2

[6] = molecular target: T2, soluble form of GPC3 core protein; assay: competitive ELISA on coated soluble GPC3 core protein; labelled competitor biotin-M3C11;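 note: Biotin-labelled antibody added as 10 µL at 10 µg/mL for 1 h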
Experimental: (§3) The obtained antibodies were classified according to the epitopes by a competitive ELISA. The antibodies were biotinylated using a Biotin Labeling Kit (Roche). The soluble form of GPC3 core protein was diluted to 1 μg/mL with the coating buffer and added to a plate at 100 μL/well and stored at 4° C. overnight to coat the plate. On the next day, 200 μL of the substrate buffer was added for blocking. The plate was left at 4° C. overnight or longer and an anti-GPC3 antibody was added to the plate at 100 μL/well and reacted at room temperature for 1 hour. After that, without washing of the plate, 10 μL of 10 μg/mL biotin-labeled anti-GPC3 antibody was added and further reacted for 1 hour. The plate was washed with 300 μL/well of the rinse buffer for 3 times. AP-streptavidin conjugate (ZYMED) was diluted to 1000-fold with the dilution buffer and added at 100 μL/well and reacted at room temperature for 1 hour. The plate was washed with 300 μL/well of the rinse buffer for 5 times.

full-length human GPC3 [7] = molecular target: T1, full-length human GPC3; assay: flow cytometry, antibody at 5 µg/mL, CHO cells expressing human GPC3 (column CHO/human GPC3)
Experimental: as §1

[8] = molecular target: T2, soluble form of GPC3 core protein; assay: competitive ELISA on coated soluble GPC3 core protein; labelled competitor biotin-M6B1;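 note: Biotin-labelled antibody added as 10 µL at 10 µg/mL for 1 h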
Experimental: as §2

[9] = molecular target: T2, soluble form of GPC3 core protein; assay: competitive ELISA on coated soluble GPC3 core protein; labelled competitor biotin-M5B9;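 note: Biotin-labelled antibody added as 10 µL at 10 µg/mL for 1 h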
Experimental: as §2

[10] = molecular target: T2, soluble form of GPC3 core protein; assay: competitive ELISA on coated soluble GPC3 core protein; labelled competitor biotin-M10D2;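 note: Biotin-labelled antibody added as 10 µL at 10 µg/mL for 1 h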
Experimental: as §2

full-length human GPC3 [11] = molecular target: T1, full-length human GPC3; assay: flow cytometry, antibody at 5 µg/mL, HuH-7 cells
Experimental: as §1

[12] = molecular target: T2, soluble form of GPC3 core protein; assay: competitive ELISA on coated soluble GPC3 core protein; labelled competitor biotin-L9G11;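 note: Biotin-labelled antibody added as 10 µL at 10 µg/mL for 1 h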
Experimental: as §3

full-length human GPC3 [13] = molecular target: T1, full-length human GPC3; assay: BIACORE; the form of GPC3 used is not given

T1 sequence (P51654 25-554 limits assumed): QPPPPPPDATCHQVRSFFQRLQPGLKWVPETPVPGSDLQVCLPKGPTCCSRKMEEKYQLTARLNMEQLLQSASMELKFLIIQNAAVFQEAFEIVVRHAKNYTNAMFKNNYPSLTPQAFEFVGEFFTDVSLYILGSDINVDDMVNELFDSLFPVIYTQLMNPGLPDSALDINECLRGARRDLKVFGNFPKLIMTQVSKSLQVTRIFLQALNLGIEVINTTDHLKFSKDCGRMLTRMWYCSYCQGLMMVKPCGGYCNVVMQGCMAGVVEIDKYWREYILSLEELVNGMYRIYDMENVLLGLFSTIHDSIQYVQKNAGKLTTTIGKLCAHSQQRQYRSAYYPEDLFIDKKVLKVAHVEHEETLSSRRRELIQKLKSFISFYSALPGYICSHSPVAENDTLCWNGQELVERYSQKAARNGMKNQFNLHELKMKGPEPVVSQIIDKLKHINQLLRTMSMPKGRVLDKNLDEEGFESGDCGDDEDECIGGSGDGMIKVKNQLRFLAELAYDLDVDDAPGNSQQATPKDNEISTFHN
T2 sequence (P51654 25-563 S495A/S509A, form in doubt): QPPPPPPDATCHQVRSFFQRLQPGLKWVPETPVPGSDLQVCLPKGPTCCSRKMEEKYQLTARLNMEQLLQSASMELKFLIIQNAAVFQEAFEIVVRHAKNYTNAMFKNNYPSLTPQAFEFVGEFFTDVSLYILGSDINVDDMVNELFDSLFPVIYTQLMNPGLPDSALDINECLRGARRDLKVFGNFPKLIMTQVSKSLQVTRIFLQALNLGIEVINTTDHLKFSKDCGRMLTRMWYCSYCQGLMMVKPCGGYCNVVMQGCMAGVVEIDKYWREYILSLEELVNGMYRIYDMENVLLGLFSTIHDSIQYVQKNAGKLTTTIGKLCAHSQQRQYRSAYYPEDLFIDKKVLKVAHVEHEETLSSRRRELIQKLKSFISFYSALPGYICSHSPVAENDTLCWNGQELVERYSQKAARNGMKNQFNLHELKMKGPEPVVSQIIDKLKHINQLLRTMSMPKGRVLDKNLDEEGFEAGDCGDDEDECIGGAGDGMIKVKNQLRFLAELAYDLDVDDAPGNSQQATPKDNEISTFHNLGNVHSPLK

Binder	FACS X-mode value of the histogram (full-length human GPC3 [1])	Inhibition of the binding of indicated biotin-Mab to sGPC3 core (%) [2] [%]	EC50 [3] [nM]	Inhibition of the binding of indicated biotin-Mab to sGPC3 core (%) [4] [%]	Inhibition of the binding of indicated biotin-Mab to sGPC3 core (%) [5] [%]	Inhibition of the binding of indicated biotin-Mab to sGPC3 core (%) [6] [%]	FACS X-mode value of the histogram (full-length human GPC3 [7])	Inhibition of the binding of indicated biotin-Mab to sGPC3 core (%) [8] [%]	Inhibition of the binding of indicated biotin-Mab to sGPC3 core (%) [9] [%]	Inhibition of the binding of indicated biotin-Mab to sGPC3 core (%) [10] [%]	FACS X-mode value of the histogram (full-length human GPC3 [11])	Inhibition of the binding of indicated biotin-Mab to sGPC3 core (%) [12] [%]	Kd (full-length human GPC3 [13]) [nM]	koff (full-length human GPC3 [13]) [s⁻¹]	kon (full-length human GPC3 [13]) [M⁻¹ s⁻¹]
M6B1 (antibody, V domains shown, Mouse monoclonal from hybridoma) VH: EVQLVESGGDLVKPGGSLKLSCAASGFTFSSYAMSWVRQTPEKRLEWVAAINSNGGTTYYPDTMKDRFTISRDNAKNTLYLQMSSLRSEDSALYYCTRHNGGYENYGWFAYWGQGTLVTVSA VL: DIQMTQSPSSLSASLGGKVTITCKASQDINKNIIWYQHKPGKGPRLLIWYTSTLQPGIPSRFSGSGSGRDYSFSISNLEPEDIATYYCLQYDNLPRTFGGGTKLEIK	34	51.9	5.51	-2.7	13.9	-5.7	37	85.6	44.4	6.7	3	1.1	–	–	–
M13B3 (antibody, V domains shown, Mouse monoclonal from hybridoma) VH: EVHLVESGGGLVKPGGSLKLSCAASGFTFSNYAMSWVRQTPEKRLEWVAAINNNGDDTYYLDTVKDRFTISRDNAKNTLYLQMSSLRSEDTALYYCVRQGGAYWGQGTLVTVSA VL: not shown	–	2.7	0.25	95.7	15.6	71.3	–	9.3	-1.8	22.3	–	24.9	–	–	–
M18D4 (antibody, human IgG1, kappa, V domains shown, Mouse monoclonal from hybridoma) VH: EVQLQQSGTVLARPGASVKMSCKASGYTFTGYWMRWVKQRPGQGLEWIGAIYPGNSDTTYNQKFKGKAKLTAVTSVSTAYMELSSLTNEDSAVYYCSRSGDLTGGFAYWGQGTLVTVST VL: DIVMTQAAFSNPVTLGTSTSISCRSSKSLLHSNGITYLYWYLQKPGQSPQLLIYQMSNLASGVPDRFSSSGSGTDFTLRISRVEAEDVGVYYCAQNLELPYTFGSGTKLEIKR	20	89	0.85	0.5	-0.3	0.2	22	38.6	89.4	19.1	2	6.7	6.2	0.000496	80000
M5B9 (antibody, V domains shown, Mouse monoclonal from hybridoma) VH: EVQLQQSGTVLARPGASVKMSCKASGYTFTGYWMHWVKQRPGQGLEWIGAIYPGNSDTNYNQKFKGKAKLTAVTSASTAYMELSSLTNEDAAVYHCTRSGDLTGGLAYWGQGTLVTVSA VL: DIVMTQAAFSNPVTLGTSASISCRSSKSLLHSNGITYLYWFLQKPGQSPQLLIYQMSNLASGVPDRFSSSGSGTDFTLRISRVEAEDVGVYYCAQNLELPYTFGSGTKLEIK	23	77.3	1.13	2.7	5.3	0.1	25	23.2	77.3	13.4	2	10.3	23.5	0.00139	60000
